From article doi:10.1101/2025.10.21.683802

Tests used:
[1] = molecular target: AP-bound β2AR dimer (construct PN1 with AP-7-168) (UniProt P07550); assay: SEC; AP-bound dimer with nucleotide-free Gs; peak fractions on SDS-PAGE, ratio of β2AR to Gα bands estimated on gels
[2] = molecular target: β2-adrenergic receptor, construct PN1 (monomeric β2AR) (human) (UniProt P07550); assay: BLI; as a1, monomeric β2AR with 10 µM AP; 10 µM Iso; apparent kon and koff; KD from equilibrium responses
[3] = molecular target: β2-adrenergic receptor, construct PN1 (monomeric) (UniProt P07550); assay: BLI; as a14, with AP at 10 μM
[4] = molecular target: β2-adrenergic receptor, construct PN1 (monomeric) (UniProt P07550); assay: BLI; FLAG-tagged β2AR held through biotinylated anti-FLAG M1 Fab on SA tips with 10 μM Iso; Gs 30 nM to 10 μM with 10 μM GDP and 0.1% BSA; NH buffer, 0.01% LMNG, 0.001% CHS; 30°C; KD from equilibrium responses

- stoichiometry N [1]: 2 β2AR per Gα
- Kd [2]: 1710 nM
- Kd [3]: 1700 nM
- Kd [4]: 960 nM
Substance: heterotrimeric Gs (Gαsβ1γ2) (from UniProt P63092 1-394; P62873 1-340; P59768 1-71) (complex)
